The data set in a line: yeast display, Sf9 membrane polyspecificity reagent, FACS + sequencing; frameworks hold sequencing errors. Put shortly:
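In a synthetic yeast display library (Saccharomyces cerevisiae BJ5465), nanobody expression was induced with galactose for 36–48 hours. FACS gates were set low and high (top ~1%) using anti-HA fluorescence for expression and streptavidin fluorescence for binding of the Sf9 membrane reagent. Each polyreactivity label is drawn from the gate of origin.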
With “QVQLVESGGGLVQAGGSLRVSCAASGRIFDSYAMGWSRQAPGKERELVAVISNNDGTTYYADSVKGRFTISRDNAKTTVYLQMNSLKPEDTAVYYCNAVYSSGVDGSEGFDYWGQGTQVTVSS”, the “polyreactivity (PSR sort gate)” value is “low polyreactivity”.

Turning to “QVQLVESGGGLVQAGGSLRVSCAASGRTFGVYTMGWYRLAPGKERELVAAITWGGGRTYYADSVKGRFTISRDNAKNTVYLHMNSLKPEDTAVYYRAARVRGQGSYHFGYWGQGTQVTVSS”, the “polyreactivity (PSR sort gate)” value is listed as “high polyreactivity”.

In the case of “QVQLVESGGGLVQAGGSLRVSCAASGRTFPYYDMGWYRQAPGKEREFVAAITWRGGSTYYADSVKGRFTISRDNAKNTVYLQMNSLKPEDSAVYYCATDSLRLYGGKRDLYYWGQGTQVTVSS”, the “polyreactivity (PSR sort gate)” value is “low polyreactivity”.

For the sequence “QVQLVESGGGLVQAGGSLRVSCAASGRTLRSYAMGWYRQAPGKERELVAAISRSGGSTYYADSVKGRFTISRDNAKNPVYLQMNSLKPEDTSVYYCATRYLRSLDYWGQGTQVTVSS”, the “polyreactivity (PSR sort gate)” value is “high polyreactivity”.

Regarding “QVQLVESGGGLVQAGGSLRVSCAASGSIFHENAMGWYRPAPGKEWELVAAIDQTGSTYADSVKGRFTISRDNAKNTVYLQMNSLKPEDTAVYYCAKGDVSLDYPSLEFDYWGQGTQVTVSS”, the “polyreactivity (PSR sort gate)” value was “low polyreactivity”.

Take “QVQLVESGGGLVQAGGSLRVSCAASGSIFHFYTMGWYRQAPGKERELVAAISSTGSTNYADSVKGRFTISRDNAKNTVYLQMNSLKPEDTAVYYCAAVGTYLAGYQFDYWGQGTQVTVSS”: the “polyreactivity (PSR sort gate)” value is reported as “low polyreactivity”.

For the sequence “QVQLVESGGGLVQAGGSLRVSCAASGSIFIVYAMGWYRQAPGKDRELVATISSGGSTNYAVSVKGRFTISRDNAKNTVYVQMNTLKPEATAVYYCAAESYWGSGLVPGYDYWGQGTQGTVSS”, the “polyreactivity (PSR sort gate)” value is on record as “low polyreactivity”.

“QVQLVESGGGLVQAGGSLRVSCAASGSIFSLYTMGWYRQAPGKERELVAAISGSGGRTYYADSVKGRFTISRDNAKNTVYLQMNSLKPEDTAVYYCAADTRSYTYYYWGQGTQVTVSS”: the “polyreactivity (PSR sort gate)” value is on record as “high polyreactivity”.

In the case of “QVQLVESGGGLVQAGGSLRVSCAASGSIFSYYDMGWYRPAPGKERELVAAITDGGDRTYYADSVKGRFTISRDNAKNTVYLQMNSLKPEHTAVYYCAAVVSVNMYWGQGTQVTVSS”, the “polyreactivity (PSR sort gate)” value is given as “low polyreactivity”.

In the case of “QVQLVESGGGLVQAGGSLRVSCAAYGRTFYRNTMGWYRQAPGKEREFVAAISATAGRTYYADSVKGRFTFSRDNAKNTVYLQKNSLKPEDTAVYYCAAVPLRNRWPNSWPALDYWGQGTQVTVSS”, the “polyreactivity (PSR sort gate)” value was “high polyreactivity”.

“QVQLVESGGGLVQAGGSLSLICAASGFIFDVYAMGWYRQAPGKERELVAAISRSGGSTHYADSVKGRFTISRDNAKNTVYLQMNSLKPEDTAVYYFATRIRVGYAKYDYWGQGTQVTVSS”: the “polyreactivity (PSR sort gate)” value was “high polyreactivity”.

With “QVQLVESGGGLVQAGGSLSLICAASGFTFYIYAMGWSRQAPRKERELVAAISSSGGSTYYADSVKGRFTISRDNAKITVYLQMNSLKPEDTAVYYCARRLLRGSDWGQGTQVTVSS”, the “polyreactivity (PSR sort gate)” value was “high polyreactivity”.

As to “QVQLVESGGGLVQAGGSLSLICAASGGTFERYAMGWYRQAPGKERELVAAISRSGGRTYYADSVKGRFTISRDNAKNSVYLQMNSLKPEDTAVYYCNSLGRYRMDYWGQGTQVTVSS”, the “polyreactivity (PSR sort gate)” value is listed as “high polyreactivity”.

Regarding “QVQLVESGGGLVQAGGSLSLICAASGLIFKYNDMGWYRQAPGKERELVAAISTSGGSTYYADSVKGRFTISRDNAKNTVYLQMNSLKPEDTAVYYCNARRQRNKSYNYWGQGTQVTVSS”, the “polyreactivity (PSR sort gate)” value was “high polyreactivity”.

Take “QVQLVESGGGLVQAGGSLSLICAASGSTFRYYTMGWYRQAPGKERELVAVISRSDDSTYADSVKGRFTISRDNAKNTVYLQMNSLKPVDTAVYYCAAAGGLFFRSTVPRGDFWGQGTQVTVSS”: the “polyreactivity (PSR sort gate)” value is on record as “low polyreactivity”.

In the case of “QVQLVESGGGLVQAGGSLSLICAASRFTFDSYAMGWYRQAPGKERELVAAINYSGGRTDYADSVKGRFTISRDNAKNTVYLQMNSLKPVDTAVYYCAAKGVRWGQGTQVTVSS”, the “polyreactivity (PSR sort gate)” value was “high polyreactivity”.

For the sequence “QVQLVESGGGLVQAGGSLSLICDASRFTFGFYAMGWYRQAPGKERELHAAISTTVGSTYYADSVKGRFTISRDNAKNTVYLQMNSLKPEDTAVFYCAAEYTGYINYYIYEYWRQGTQVTVSS”, the “polyreactivity (PSR sort gate)” value is given as “low polyreactivity”.

With “QVQLVESGGGLVQAGGSLSLMCAASGGIFPRYTRGWYRQAPGKEREMVASISRSGASTYYADSVKGRFTISRDNAKNTVYLQMNSLKTEDTAVYYCNARFVTGYWYIWENYWGQGTQVTVSS”, the “polyreactivity (PSR sort gate)” value is “high polyreactivity”.

For “QVQLVESGGGLVQAGGSLSLRCAASGRTVGSYAMVWYRQAPGKERELVAVINGDGSTYYADSVKGRFTISRDNAKNTVYFQMNSLKPVDTAVYYCNNVSFYLGTRRVSLKHYYWGQGTQVTLSS”, the “polyreactivity (PSR sort gate)” value is on record as “low polyreactivity”.

Regarding “QVQLVESGGGLVQAGGSLSLRCASSGSTFAYYAMGWYRQAPGKERELVAGNNWTGGSTYYADSVKGRFTISRDNAKNTVYLQMNSLKPEDTAVYYCAVTYPYGYEYDHWGQGTQVTVSS”, the “polyreactivity (PSR sort gate)” value is “low polyreactivity”.

As for “QVQLVESGGGLVQAGGSLSLSCAASGFIFLASAMGWYRQAPGKERELVAAISSGSSTSYADSLKGRFTISRDNAKNTVYLQMNSLKPEDTAVYYCNAVPSFANLTWESYDYWGQGTQVTVSS”, the “polyreactivity (PSR sort gate)” value is on record as “low polyreactivity”.

Turning to “QVQLVESGGGLVQAGGSLSLSCAASGFTFEKNAMGWYRQAPGKERELVAAITSGGSTYYADSVKGRFTISRDNAKNTVYLQMNSLKPEDTAVYYCNAYYTYRFNYWGQGTQVTVSS”, the “polyreactivity (PSR sort gate)” value was “high polyreactivity”.

For the sequence “QVQLVESGGGLVQAGGSLSLSCAASGFTIYYYAMGWYRQAPGKERELVASITSGGSTYYADSVKGRFTISRDNAKNTVYLQMNSLKPEDTAVYYCAKTRFHSKEGDYWGQGTQVTVSS”, the “polyreactivity (PSR sort gate)” value is given as “low polyreactivity”.

As for “QVQLVESGGGLVQAGGSLSLSCAASGFTLRFYTMGWYRQAPGKERELVADITWSGASTYYADSVKGRFTISRDNAKNTVYLQMKSLKPEDTAVYYCNAEDRYWSYSVGAPYNYWGQGTQVTVSS”, the “polyreactivity (PSR sort gate)” value is given as “low polyreactivity”.

Turning to “QVQLVESGGGLVQAGGSLSLSCAASGIIFGRNALGWYRQAPGKEREMVAGITRRGARTYYADSVKGRFTISRDNAKNTVDLQMNSLKPEDTAVYYCATYSVQTDYGRGDYWGQGTQVTVSS”, the “polyreactivity (PSR sort gate)” value was “high polyreactivity”.

As to “QVQLVESGGGLVQAGGSLSLSCAASGITFEWYAMGWYRQAPGKERELVAAISTSGGSTYYADSVKGRFTISRDNEKNTVYLQMNSLKPEDTEVYYCNTVSYGYSSKLYDYWGHGTQVTVSS”, the “polyreactivity (PSR sort gate)” value is “high polyreactivity”.

Take “QVQLVESGGGLVQAGGSLSLSCAASGITFSGNAMGWYRQAPGKERELVAAITWRGDNTYYADSVKGRFTISRDNAKNTVYLQMNSLKPEDTAVYYCAAKSPLFGLTSYPGPDDSWGQGTQVTVSS”: the “polyreactivity (PSR sort gate)” value is on record as “low polyreactivity”.

As for “QVQLVESGGGLVQAGGSLSLSCAASGLTFSWYTMGWYRPAPGKERELVAAISWSGVSTYYADSVMGRFTISRDNAKNTVYLQMNSLKPEDTAVYYCAAAKTGRGRGTTGYGYWGQGTQVTVSS”, the “polyreactivity (PSR sort gate)” value is reported as “high polyreactivity”.

“QVQLVESGGGLVQAGGSLSLSCAASGNTFWGYAMGWYRQAPGKEREFVARINWSGGRTYYAESVKGRFTISRDNAKNTVYLQMNSLKPEDTAVYYCAATSLIYGYRTYDYWGQGTQVTVSS”: the “polyreactivity (PSR sort gate)” value was “high polyreactivity”.

As for “QVQLVESGGGLVQAGGSLSLSCAASGRIFRRYAMGWYRPAPGKERELVASISSGGSTNYADSVKGRFTISRDNAKNTVYLQMNSLKPEDTAVYYCDADRARYYYQAYGAYGYWGQGTQVTVSS”, the “polyreactivity (PSR sort gate)” value is “high polyreactivity”.

On to “QVQLVESGGGLVQAGGSLSLSCAASGRIFSWYDMGWYRQAPGKERELVAAISSGGSTKYADSVKGRFTISRDNAKNTVYLQMNCLKPEDTAVYYCAARLPRRYTREGYWGQGTQVSVSS”, for which the “polyreactivity (PSR sort gate)” value is “high polyreactivity”.

In the case of “QVQLVESGGGLVQAGGSLSLSCAASGRILSLNAMGWYRQAPGKERELVAGIRKRGGSTYYADSVKGRFTISRDNAKNTVYLQMNSLKPEDTAVYYCAADGTLFSEYYWFFGYHDYWGQGTQVNVSS”, the “polyreactivity (PSR sort gate)” value was “high polyreactivity”.

In the case of “QVQLVESGGGLVQAGGSLSLSCAASGRSWFGNAMGWYRQAPGKERELVASISTRGGSTYYADSVKGRFTISRDNAKNTVYLQMNSLKPEDTAVYYCAKRGRDRRIYGYWGQGTQVTVSS”, the “polyreactivity (PSR sort gate)” value is “high polyreactivity”.

Take “QVQLVESGGGLVQAGGSLSLSCAASGRTFANYAMGWYRHAPGKETEFVAVITYSGGNTYYADSVKGRFTISRDNAKNTVYLQMNSLKPEDTAVYYCAKGRPYRNGLYYYWGQGTQVTVSS”: the “polyreactivity (PSR sort gate)” value is on record as “high polyreactivity”.

Turning to “QVQLVESGGGLVQAGGSLSLSCAASGRTFGYNAKGWYRQAPGKERELVASISYRGGSTYYADSVKGRFTISRDNAKNSVYLQMNSLKPEDTAVYYCNKYYVLREYYWGQGTQVTVSS”, the “polyreactivity (PSR sort gate)” value was “high polyreactivity”.

Take “QVQLVESGGGLVQAGGSLSLSCAASGRTFKYYAMGWYRQAPGKERELVATITWSGTSTNYADSVKGRFTISRDNEKHTVYLQMNSLKPEDTAVYYCAARSKRRNYDYWGQGTQVTVSS”: the “polyreactivity (PSR sort gate)” value is “high polyreactivity”.

Regarding “QVQLVESGGGLVQAGGSLSLSCAASGRTFLIYAMGWYRQAPGKERELVAAITSGDNTYYADSVKGRFTISRDNAKNTVYLQMNSLKPEDTAVYYCAAGGYVRNYYTYEHWGQGTQVTVSS”, the “polyreactivity (PSR sort gate)” value is “low polyreactivity”.

On to “QVQLVESGGGLVQAGGSLSLSCAASGRTFNSNAMGWYRQAPGKERELVAAISNRGTRTYYADSVKGRFTISRDNAKNTVYLQMNSLKPEDTAVYYCAASERDQRFKHYYWGQGTQVTVSS”, for which the “polyreactivity (PSR sort gate)” value is “high polyreactivity”.

For “QVQLVESGGGLVQAGGSLSLSCAASGRTFSQYAMGWYRPAPGTERELVAAIDRTGDSTYYADSVKGRFTISRDNAKNTVYLQMNSLKPEDTAVYYCNRRYTRVRSRKGYDYWGQGTQVTVSS”, the “polyreactivity (PSR sort gate)” value is “high polyreactivity”.

Consider “QVQLVESGGGLVQAGGSLSLSCAASGRTFVKNTMGWYRQAPGKERELVAAISSSGGSTYYADSVKGRFTISRDNAKNTVYLQMNSLKPEDTAVYYCAVSYPYKHAGGWYAYNYWGQGTLVTVSS”, for which the “polyreactivity (PSR sort gate)” value is on record as “high polyreactivity”.

For “QVQLVESGGGLVQAGGSLSLSCAASGRTFYAYAMGWYRQAPGTERELVACIDKSGGSPYYADSVKGRFTISRTMRRYRLFTDEQPETGRYRGLLLRCWCVVLSDIQFWGEFDYDYWGQGTQVTVSS”, the “polyreactivity (PSR sort gate)” value was “low polyreactivity”.

The values are drawn from the nanobody polyreactivity screen of Harvey et al. (2022).
